Test [1] concerns rat jejunal mucosa. Briefly: Short circuit current (SCC) in voltage clamped rat jejunal mucosa (antisecretory effect). The test is classed as cell-based. The following applies: for EC50: Table 1, reduction of baseline SCC, rat jejunum, mean of three separate experiments. The procedure: The antisecretory effects of the peptides were investigated by measuring the short-circuit current (SCC) in rat jejunal mucosa mounted in a Ussing chamber and automatically voltage clamped as described by Cox et al. (J. Physiol. supra). Briefly, strips of mucosa were placed between two halves of perspex Ussing chambers (window size, 0.6 cm^2) containing oxygenated (95% O2 /5% CO2) Krebs-Henseleit solution (NaCl, 117 mM, KCl 4.7 mM, CaCl2, 2.5 mM; MgSO4 1.2 mM, NaHCO3 24.8 mM and glucose 11.1 mM), pH 7.4, 37° C. […] Once a stable baseline SCC was reached, peptides were added to the basolateral reservoir only, and cumulative concentration-response profiles constructed.

Test [2] has as its target T1, intestinal PYY-preferring receptors (Rattus norvegicus, UniProt Q9ERC0).
T1 sequence (Q9ERC0 1-381): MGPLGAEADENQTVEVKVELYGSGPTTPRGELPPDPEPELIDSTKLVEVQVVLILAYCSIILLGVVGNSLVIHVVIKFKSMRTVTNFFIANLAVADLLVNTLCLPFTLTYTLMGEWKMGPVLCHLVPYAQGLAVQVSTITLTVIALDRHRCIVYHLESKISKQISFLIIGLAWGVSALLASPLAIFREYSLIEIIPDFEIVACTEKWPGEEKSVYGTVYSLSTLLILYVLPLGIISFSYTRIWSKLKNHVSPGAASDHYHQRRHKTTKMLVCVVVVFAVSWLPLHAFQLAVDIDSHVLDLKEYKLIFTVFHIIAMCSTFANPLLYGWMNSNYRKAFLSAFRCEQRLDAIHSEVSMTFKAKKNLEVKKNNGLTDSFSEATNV
The following applies: BINDING IC50 (nM), Table 1; 125I-PYY, rat jejunal membranes; mean of three separate experiments.
Method: Bound and free peptides were separated by centrifugation at 20,000×g for 10 min.
All points in the binding experiments are the mean of at least three experiments performed in duplicate.

For test [3], the target named is PYY receptor of rat jejunal epithelial plasma membranes (rat). The test is described as follows: competition with 125I-PYY on rat jejunal membranes.
For test [4] the target is unchanged. Briefly: competition with 0.05 nM 125I-PYY on rat jejunal epithelial plasma membranes.
Test [5] shares this target.
For test [6] the target is unchanged. The test is described as follows: competition with 125I-PYY on rat jejunal epithelial plasma membranes.
The target is the same in test [7]. This is another data set of the same source.
Test [8] shares this target. The source holds these as a separate data set.
Test [9] shares this target. Briefly: competitive binding, done as described above (125I-PYY, rat jejunal membranes).
Test [10] has as its system rat jejunal mucosa. The following applies: Cox et al. Peptides, supra; cited from earlier work.

Like-named read-outs stand apart in the source and are kept apart here. Square brackets hold non-standard residues; d marks the D form. Peptide text beside a SMILES is read from it. Phe(4-Cl) = N[C@@H](Cc1ccc(Cl)cc1)C(=O)O Some results are limits rather than exact numbers.

Turning to `CC(=O)N[C@@H](C)C(=O)N[C@@H](CO)C(=O)N[C@@H](CC(C)C)C(=O)N[C@@H](CCCNC(=N)N)C(=O)N[C@@H](Cc1ccc(Cl)cc1)C(=O)N[C@@H](Cc1ccc(O)cc1)C(=O)N[C@@H](CC(C)C)C(=O)N[C@@H](CC(N)=O)C(=O)N[C@@H](CC(C)C)C(=O)N[C@H](C(=O)N[C@H](C(=O)N[C@@H](CCCNC(=N)N)C(=O)N[C@@H](CCC(N)=O)C(=O)N[C@@H](CCCNC(=N)N)C(=O)N[C@@H](Cc1ccc(O)cc1)C(N)=O)[C@@H](C)O)C(C)C` [N-α-Ac-[p.ClPhe^26]PYY(22-36), N-α-Ac-A S L R [p.Cl.Phe^26] Y L N L V T R Q R] (HELM PEPTIDE1{[ac].A.S.L.R.[O=C([C@H](Cc1ccc(Cl)cc1)N[*:1])[*:2]].Y.L.N.L.V.T.R.Q.R.Y.[am]}$$$$V2.0), in the test with rat jejunal mucosa [1], the half-maximal effective concentration (EC50) (usually the concentration giving half of the maximal effect) was 124 nM. For the same molecule, the half-maximal inhibitory concentration (IC50) (usually the concentration that inhibits the measured activity by half) in test [2] came out at 50 nM.

For the molecule “Ac-ASLRHFLNLVTRQRY-NH2 [N-α-Ac-[Phe^27]PYY(22-36)]”, in the test with rat jejunal mucosa [1] (1.4 μM, n=7), the “maximal inhibitory response (change in SCC)” value is recorded as -12.0±1.3 μA/0.6 cm^2. The response in the test with rat jejunal mucosa [1] was half-maximal at 15.1 nM (EC50). Also, the “times less potent than the intact hormone (antisecretory potency)” value with rat jejunal mucosa [1] (relative to PYY) is reported as 9 times.

Molecule “Ac-ASLRHYENLVTRQRY-NH2 [N-α-Ac-[Glu^28]PYY(22-36), N-α-Ac-A S L R H Y [Glu] N L V T R Q R Y--NH2]” came in with an EC50 in the test with rat jejunal mucosa [1] of 3000 nM. The molecule further registered an IC50 in test [2] of 44.7 nM.

Consider N-α-Ac-PYY(22-36) (peptide), for which the results for the half-inhibitory concentration (IC50) in test [3] and in test [4] were 0.08 nM and 1.12 nM, respectively. In [5], this molecule came in with an SCC EC50 of 40 nM. Moreover, in [6], the fold increase of receptor affinity against PYY(22-36) worked out at 4 times.

Consider “N-α-naphthaleneacetyl-PYY(22-36) (peptide)”, for which the SCC EC50 in test [7] was over 30000 nM; in test [5], 19500 nM.

In the case of PYY (peptide YY) (ligand), the maximal inhibitory response of SCC in test [8] is -12.6 µA/0.6 cm^2. The values for the concentration for half-maximal inhibition (IC50) in test [9], in test [3] and in [4] were 0.1 nM, 0.04 nM and 0.2 nM, respectively. In addition, the SCC EC50 of PYY after treatment of the tissue with the analog (1 µM) in [7] amounted to 4.4 nM. The SCC EC50 of PYY, nontreated controls in test [7] was determined as 2.6 nM. This molecule also registered an SCC EC50 in [5] of 1.7 nM.

Regarding [Pro^34 ]NPY: Y-1 selective agonist, the “sensitivity of rat jejunal epithelial receptors to agonist” value with rat jejunal mucosa [10] was “completely insensitive”.

For Ac-ASLRHYENLVTRQRY-NH2 [N-α-Ac-[Glu^28 ]PYY(22-36)], in test [4], the IC50 came to 44.7 nM. This molecule also came in with an SCC EC50 in test [5] of 3000 nM.

FSLRHFLNLVTRQRY (not fully specified; N-terminal acetyl; C-terminal amide) [N-α-Ac-[Phe^22,27 ]PYY(22-36)]: in test [9], the IC50 was 11.2 nM.

B1: N-α-Ac-[Thz^26, Phe^27 ]PYY(22-36) (peptide)
peptide: ASLRXFLNLVTRQRY
HELM: PEPTIDE1{[ac].A.S.L.R.[O=C([C@H](Cc1cscn1)N[*:1])[*:2]].F.L.N.L.V.T.R.Q.R.Y.[am]}$$$$V2.0
SMILES: CC(=O)N[C@@H](C)C(=O)N[C@@H](CO)C(=O)N[C@@H](CC(C)C)C(=O)N[C@@H](CCCNC(=N)N)C(=O)N[C@@H](Cc1cscn1)C(=O)N[C@@H](Cc1ccccc1)C(=O)N[C@@H](CC(C)C)C(=O)N[C@@H](CC(N)=O)C(=O)N[C@@H](CC(C)C)C(=O)N[C@H](C(=O)N[C@H](C(=O)N[C@@H](CCCNC(=N)N)C(=O)N[C@@H](CCC(N)=O)C(=O)N[C@@H](CCCNC(=N)N)C(=O)N[C@@H](Cc1ccc(O)cc1)C(N)=O)[C@@H](C)O)C(C)C
In turn, B1 gave a half-inhibitory concentration (IC50) in test [9] of 4.5 nM.

B2: N-α-Ac-[p.ClPhe^26 ]PYY(22-36) (peptide)
peptide: ASLRXYLNLVTRQRY
HELM: PEPTIDE1{[ac].A.S.L.R.[O=C([C@H](Cc1ccc(Cl)cc1)N[*:1])[*:2]].Y.L.N.L.V.T.R.Q.R.Y.[am]}$$$$V2.0
SMILES: CC(=O)N[C@@H](C)C(=O)N[C@@H](CO)C(=O)N[C@@H](CC(C)C)C(=O)N[C@@H](CCCNC(=N)N)C(=O)N[C@@H](Cc1ccc(Cl)cc1)C(=O)N[C@@H](Cc1ccc(O)cc1)C(=O)N[C@@H](CC(C)C)C(=O)N[C@@H](CC(N)=O)C(=O)N[C@@H](CC(C)C)C(=O)N[C@H](C(=O)N[C@H](C(=O)N[C@@H](CCCNC(=N)N)C(=O)N[C@@H](CCC(N)=O)C(=O)N[C@@H](CCCNC(=N)N)C(=O)N[C@@H](Cc1ccc(O)cc1)C(N)=O)[C@@H](C)O)C(C)C
B2 registered an IC50 in test [4] of 50 nM. This molecule displayed an SCC EC50 in test [5] of 124 nM.

Ac-ASLRH[Phe(4-Cl)]LNLVTRQRY-NH2 [N-α-Ac-[Pcp^27 ]PYY(22-36)] returned an IC50 in [9] of 1.58 nM.

B3: N-α-Ac-[Phe^27,Thi^36 ]PYY(22-36) (peptide)
peptide: ASLRHFLNLVTRQRX
HELM: PEPTIDE1{[ac].A.S.L.R.H.F.L.N.L.V.T.R.Q.R.[O=C([C@H](Cc1cccs1)N[*:1])[*:2]].[am]}$$$$V2.0
SMILES: CC(=O)N[C@@H](C)C(=O)N[C@@H](CO)C(=O)N[C@@H](CC(C)C)C(=O)N[C@@H](CCCNC(=N)N)C(=O)N[C@@H](Cc1c[nH]cn1)C(=O)N[C@@H](Cc1ccccc1)C(=O)N[C@@H](CC(C)C)C(=O)N[C@@H](CC(N)=O)C(=O)N[C@@H](CC(C)C)C(=O)N[C@H](C(=O)N[C@H](C(=O)N[C@@H](CCCNC(=N)N)C(=O)N[C@@H](CCC(N)=O)C(=O)N[C@@H](CCCNC(=N)N)C(=O)N[C@@H](Cc1cccs1)C(N)=O)[C@@H](C)O)C(C)C
In [9], B3 registered an IC50 of 4.46 nM.

For the molecule Ac-YSLRHFLNLVTRQRY-NH2 [N-α-Ac-[Tyr^22, Phe^27 ]PYY(22-36)], the 50% inhibitory concentration (IC50) in [9] came to 0.1 nM.

Ac-ASLRHFLNLVTRQRY-NH2 [N-α-Ac-[Phe^27 ]PYY(22-36)]: in test [8], the antisecretory potency against PYY (times less potent than PYY) worked out at 9 and the maximal inhibitory response of SCC is -12 µA/0.6 cm^2. The molecule also showed an IC50 in test [4] of 0.8 nM. The molecule also yielded an SCC EC50 in [5] of 15.1 nM. Also, the percent increase of receptor affinity against N-α-Ac-PYY(22-36) in test [6] amounted to 28%.

The record behind these values is patent US5604203A, “Analogs of peptide YY and uses thereof” (University of Cincinnati, priority 1994, dated 1997).
